This note sets out measurements from patent US5739276.

Values joined by “and” are separate entries in the source; they are usually repeats but may differ in a detail not shown here. Identical values can stand only once.

Assay [1] has as its target rat brain Na channel (voltage-sensitive sodium channels in rat brain membranes) (rat). As to the kind of experiment: binding of 125I-δ-conotoxin TxVIA to rat brain membranes, no competitor.
The target of assay [2] is rat brain Ca^2+ channels (ω-conotoxin GVIA binding site in rat brain membranes) (rat). As to the kind of experiment: binding of 125I-ω-conotoxin GVIA to rat brain membranes, no competitor.
Assay [3] has the same target. As to the kind of experiment: competition on rat brain membranes; label (competitor) 125I-ω-conotoxin GVIA.
Assay [4] has as its target rat brain Na channel (voltage-sensitive sodium channels in rat brain membranes) (rat). As to the kind of experiment: competition on rat brain membranes; label (competitor) 125I-δ-conotoxin TxVIA.
Assay [5] deals with ω-conotoxin GVIA binding sites on brain membrane preparations from frogs, chicks and rats.

^125 I!δ-conotoxin TxVIA (peptide) showed a cpm bound in assay [1] of 4890 cpm.
In the case of “^125 I-labeled ω-conotoxin GVIA (from UniProt P01522) (peptide)”, the cpm bound in assay [2] is 4400 cpm.
Take δ-conotoxin PVIA (amidated) (peptide): the cpm bound in assay [3] stood at 4930 cpm; in assay [4], 889 cpm.
In the same order, the values of “δ-conotoxin PVIA (nonamidated) (peptide)” are 4390 cpm and 848 cpm.
Take δ-conotoxin TxVIA (peptide): the cpm bound in assay [3] stood at 4720 cpm; in assay [4] it was 925 cpm.
For the substance “ω-conotoxin GVIA (from UniProt P01522) (peptide)”, in assay [5], the percent of ^125 I-GVIA displaced was 90% and 98%. The cpm bound in assay [3] was 954 cpm; in assay [4] it was 4710 cpm.
